Patent publication US9309303B2, “Complexation of fatty acid-conjugated molecules with albumin” (The University of the Sciences in Philadelphia, priority 2007, dated 2016)
Ends that are not written are not given here. fluorescein = fluorescein conjugated to the primary amine of the Lys side chain through an MHS ester

Tests used:
HeLa cells [1] = experiment: transfection of HeLa cells with peptides in the presence of HSA; assay type: cell-based; details: 250 pmol peptide, 250 pmol HSA
Description: Fatty acid-conjugated faTraF peptides and non-conjugated faTraE peptides (250 pmol) were added to separate batches of HeLa cells (24-well plate with 250 μl of EMEM medium). 250 Pmol of HSA was added to the incubation of some wells, but not others. Cells incubated in the presence of HSA and the fatty-acid conjugated peptides were transfected.

[2] = solubility of rHSA purified from Pichia pastoris expression system; assay type: physicochemical
Excerpt: We cloned, expressed and purified this rHSA from a Pichia pastoris yeast rHSA expression system. The protein was soluble and was purified to apparent homogeneity. We confirmed the identity of the purified protein by Western blotting using anti-HSA antibody and anti-c-Myc antibody. The alpha-v-beta-3 integrin binding ability of RGD-HSA was confirmed by co-immunoprecipitation and Western blotting.

HeLa cells [3] = experiment: cellular uptake and/or binding of Rhodamine-labeled rHSAs, fluorescent microscopy; assay type: cell-based; details: 50 pmol labeled rHSA
Description: It has been reported that there is no αvβ3 type of integrin in HeLa cells. Nonetheless, HeLa cells are still able to bind fibronectin. Similar to the cellular uptake experiments for MDA-MB-435S cells, the fluorescent dye labeled rHSAs (50 pmol for rHSA, RGD-rHSA-FN and RGD-rHSA-4C) were added to cultured HeLa cells (with 250 μl EMEM in 24-well plate). Cellular uptake and/or binding was monitored at 1, 4, and 8 hours after washing with fresh non-labeled medium. Cellular uptake and/or binding of albumin was then visualized using fluorescent microscopy.

αvβ3 integrin = molecular target: T1, αvβ3 integrin (Homo sapiens, UniProt P05106+P06756); experiment: αvβ3 integrin-binding assay (co-immunoprecipitation / Ni2+ pull-down, Western blotting); details: co-immunoprecipitation and Western blotting
T1 construct: 300 μg MDA-MD-435S (αvβ3 positive) cell extract; endogenous in cells; host or cells: MDA-MB-435S (printed MDA-MD-435S) cell extract
Description: Lanes 3 and 6 each contained mixture of 300 μg MDA-MD435S cell extract and 1.2 μg of RGD-rHSA (wild type HSA). For the convenience of purification and detection, all rHSAs were fused with c-terminal c-myc and His6 tags. For lane 1, 2, and 3, the αvβ3 complexes were immunoprecipitated with anti-αv antibody (CHEMICON, AB1930). rHSAs associated with αvβ3 were detected by anti-c-myc antibody. […] For lane 4,5, and 6, the poly-HIS-tagged rHSAs were pulled down with Ni2+-charged chelating agarose. αvβ3 Associated with rHSAs was detected by anti-αv antibody (CHEMICON, AB 1930).

[4] = esterase assay, p-nitrophenyl acetate hydrolysis; assay type: biochemical; details: 5 μM p-nitrophenyl acetate, 40 μg protein, pH 7.4, 37° C., 390 nm
Description: The reaction of p-nitrophenyl acetate hydrolysis-mediated by rHSA and RGD-rHSA was assessed spectrophotometrically at 390 nm by monitoring the appearance of p-nitrophenol. The reaction mixtures contained 5 μM p-nitrophenyl acetate and 40 μg protein in 67 mM phosphate buffer (pH 7.4). Reactions were performed at 37° C.

HSA = HSA (Homo sapiens, UniProt P02768); details: 25 pmol peptide, 100 pmol defatted HSA, 15 minutes, room temperature
Description: The reaction mixture was loaded to 0.5×TBE acrylamide gel and separated under 12 mA current.

T1 sequence (P06756 31-889 limits assumed): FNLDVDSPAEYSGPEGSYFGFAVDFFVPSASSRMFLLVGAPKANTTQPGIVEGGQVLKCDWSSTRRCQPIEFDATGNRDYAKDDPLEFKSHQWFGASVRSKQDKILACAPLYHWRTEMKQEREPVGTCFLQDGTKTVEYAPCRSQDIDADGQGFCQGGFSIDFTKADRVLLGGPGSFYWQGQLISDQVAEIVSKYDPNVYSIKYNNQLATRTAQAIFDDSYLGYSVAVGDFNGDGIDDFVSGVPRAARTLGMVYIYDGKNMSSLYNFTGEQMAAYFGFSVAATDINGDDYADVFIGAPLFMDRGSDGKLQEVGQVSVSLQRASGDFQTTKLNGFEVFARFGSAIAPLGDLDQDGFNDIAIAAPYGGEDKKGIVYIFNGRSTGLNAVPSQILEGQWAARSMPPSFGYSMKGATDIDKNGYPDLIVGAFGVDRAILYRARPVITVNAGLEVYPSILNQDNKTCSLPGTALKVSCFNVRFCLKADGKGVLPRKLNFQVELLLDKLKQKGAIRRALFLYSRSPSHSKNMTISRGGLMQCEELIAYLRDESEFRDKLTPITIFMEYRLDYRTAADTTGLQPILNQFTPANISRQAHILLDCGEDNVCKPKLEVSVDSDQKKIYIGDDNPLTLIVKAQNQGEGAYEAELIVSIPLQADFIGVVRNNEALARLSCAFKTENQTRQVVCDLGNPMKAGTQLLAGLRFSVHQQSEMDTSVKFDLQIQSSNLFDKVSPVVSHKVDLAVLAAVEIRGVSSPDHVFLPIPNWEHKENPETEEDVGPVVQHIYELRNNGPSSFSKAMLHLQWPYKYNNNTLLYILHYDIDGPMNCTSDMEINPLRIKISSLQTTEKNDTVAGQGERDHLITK
T1 sequence (P06756 891-1048 partner limits assumed): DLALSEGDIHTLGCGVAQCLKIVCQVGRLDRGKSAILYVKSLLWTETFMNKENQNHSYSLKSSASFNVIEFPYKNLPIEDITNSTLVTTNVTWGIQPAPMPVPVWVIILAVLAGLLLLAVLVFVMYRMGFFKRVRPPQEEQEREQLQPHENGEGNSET
T1 sequence (P05106 27-788): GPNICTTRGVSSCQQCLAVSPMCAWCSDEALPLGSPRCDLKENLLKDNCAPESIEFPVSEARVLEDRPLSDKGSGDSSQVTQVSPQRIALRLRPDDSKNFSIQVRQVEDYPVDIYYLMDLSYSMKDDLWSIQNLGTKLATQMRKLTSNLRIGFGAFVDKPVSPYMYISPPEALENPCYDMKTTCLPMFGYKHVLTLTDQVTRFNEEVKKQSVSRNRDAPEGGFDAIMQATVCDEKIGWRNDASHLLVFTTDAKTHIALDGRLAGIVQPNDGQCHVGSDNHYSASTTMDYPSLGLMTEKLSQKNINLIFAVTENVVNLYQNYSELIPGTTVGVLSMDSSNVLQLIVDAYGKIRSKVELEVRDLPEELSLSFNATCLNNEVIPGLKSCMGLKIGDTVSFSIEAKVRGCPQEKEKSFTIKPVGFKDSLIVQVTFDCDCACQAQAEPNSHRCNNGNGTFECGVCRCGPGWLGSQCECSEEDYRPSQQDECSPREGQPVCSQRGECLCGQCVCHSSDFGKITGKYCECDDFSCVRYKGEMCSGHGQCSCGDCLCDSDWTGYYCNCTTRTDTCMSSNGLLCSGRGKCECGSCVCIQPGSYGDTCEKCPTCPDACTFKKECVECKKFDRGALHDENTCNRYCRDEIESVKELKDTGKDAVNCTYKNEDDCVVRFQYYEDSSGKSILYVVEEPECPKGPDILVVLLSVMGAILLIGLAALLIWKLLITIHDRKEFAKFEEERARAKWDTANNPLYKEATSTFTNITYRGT

Row | Substance | transfection of HeLa cells (HeLa cells [1]) | solubility of purified protein [2] | effect of RGD sequence on albumin uptake and/or binding (HeLa cells [3]) | αvβ3 integrin binding ability / ability to interact (αvβ3 integrin) | esterase activity [4] | complex with HSA on gel (HSA)
1 | unmodified peptides: peptide CHLDAHWKG (SEQ ID NO: 58) conjugated with fluorescein at Lys, without fatty acid (CHLDAHWK(fluorescein)G) [reference compound] | can not be observed | – | – | – | – | –
2 | RGD-rHSA-FN: rHSA containing fibronectin RGD sequence (CGRGDSPC) in place of residues 53-62 of HSA | – | soluble | mildly stimulated | confirmed | comparable | –
3 | fatty acid-conjugated faTraF peptide: fluorescein-labeled peptide CHLDAHWKG conjugated at Cys thiol with 16-methanethiosulfonyl hexadecanoic acid: HOOC—(CH2)15—S—S-peptide (not fully specified (residue 1); also: fluorescein-labeled (position not given here)) | transfected | – | – | – | – | clearly observed
